In publication PMC3409459, “Absorption, distribution, metabolism and excretion of peginesatide, a novel erythropoiesis-stimulating agent, in rats” (Xenobiotica; the Fate of Foreign Compounds in Biological …, 2011):

Assay: Tissue distribution of radioactivity by LSC following combustion, albino rats
Assay type: in vivo, male Sprague-Dawley (albino) rats
Settings: for Concentration of the radioactivity, Pituitary / Concentration of the radioactivity, Plasma / Concentration of the radioactivity, Skeletal muscle / Concentration of the radioactivity, Skin / Concentration of the radioactivity, Spinal cord / Concentration of the radioactivity, Spleen / Concentration of the radioactivity, Stomach / Concentration of the radioactivity, Submandibular lymph nodes / Concentration of the radioactivity, Testes / Concentration of the radioactivity, Thymus / Concentration of the radioactivity, Thyroid gland / Concentration of the radioactivity, Urinary bladder / Concentration of the radioactivity, Adrenals / Concentration of the radioactivity, Blood / Concentration of the radioactivity, Bone (femur) / Concentration of the radioactivity, Bone marrow / Concentration of the radioactivity, Brain / Concentration of the radioactivity, Eyes / Concentration of the radioactivity, Fat / Concentration of the radioactivity, Harderian glands / Concentration of the radioactivity, Heart / Concentration of the radioactivity, Intestine / Concentration of the radioactivity, Kidneys / Concentration of the radioactivity, Liver / Concentration of the radioactivity, Lungs / Concentration of the radioactivity, Pancreas: mean ± SD, n=3; for tissue to plasma ratios: single IV 5 mg·kg^−1
Procedure: Total captured radioactivity was subsequently measured via LSC.
Male Sprague-Dawley (albino) rats (n = 21; three per time point) were administered a single IV dose of 5 mg·kg^−1 [^14C]-peginesatide (27.5 μCi/kg) and tissue concentrations of radioactivity determined at 0.25, 6, and 24 h, and 7,14,30 and 60 days following dosing. Similarly, male Long Evans (pigmented) rats (n = 21; three per time point) were administered a single IV dose of 5 mg-kg^−1 [^14C]-peginesatide and plasma, skin, and eye concentrations of radioactivity were measured at the various time points through 60 days after dosing. At each time point, blood was collected, the animals sacrificed, and tissues excised. Tissues collected from the Sprague-Dawley rats included blood, plasma, adrenals, bone marrow, brain, eyes, fat, femur, Harderian glands, heart, hypophysis, intestine, kidneys, lungs, liver, pancreas, skeletal muscle, skin, spinal cord, spleen, stomach, submaxillary glands, testes, thymus, thyroid gland, and urinary bladder. Plasma, eyes, non-pigmented skin, and pigmented skin were collected from Long Evans rats. All tissue samples were measured for radioactivity by LSC following combustion. The liver and intestine were first homogenized in distilled water (20% w/v) prior to analysis. The concentration of radioactivity in the blood, plasma, and tissues was calculated and expressed as ug equiv·g^-1 or mLbased on the LSC counts and the specific activity of the dosing solution.

[1] = 60 Days after single IV 5 mg·kg^−1, LSC
[2] = 0.25 h after single IV 5 mg·kg^−1, LSC
[3] = 6 h after single IV 5 mg·kg^−1, LSC
[4] = 24 h after single IV 5 mg·kg^−1, LSC

Peginesatide
Concentration of the radioactivity, Pituitary [1]: 4.32 ± 0.289 μg equiv·g^−1 or mL | Concentration of the radioactivity, Plasma [1]: 0.232 ± 0.042 μg equiv·g^−1 or mL | Concentration of the radioactivity, Skeletal muscle [1]: 0.085 ± 0.021 μg equiv·g^−1 or mL | Concentration of the radioactivity, Skin [1]: 0.394 ± 0.080 μg equiv·g^−1 or mL | Concentration of the radioactivity, Spinal cord [1]: 0.036 ± 0.018 μg equiv·g^−1 or mL | Concentration of the radioactivity, Spleen [1]: 3.40 ± 0.480 μg equiv·g^−1 or mL | Concentration of the radioactivity, Stomach [1]: 0.590 ± 0.242 μg equiv·g^−1 or mL | Concentration of the radioactivity, Submandibular lymph nodes [1]: 8.74 ± 1.22 μg equiv·g^−1 or mL | Concentration of the radioactivity, Testes [1]: 5.10 ± 2.17 μg equiv·g^−1 or mL | Concentration of the radioactivity, Thymus [1]: 1.15 ± 0.155 μg equiv·g^−1 or mL | Concentration of the radioactivity, Thyroid gland [1]: 8.03 ± 1.45 μg equiv·g^−1 or mL | Concentration of the radioactivity, Urinary bladder [1]: 0.967 ± 0.188 μg equiv·g^−1 or mL | Concentration of the radioactivity, Adrenals [2]: 8.45 ± 0.517 μg equiv·g^−1 or mL | Concentration of the radioactivity, Blood [2]: 80.9 ± 1.90 μg equiv·g^−1 or mL | Concentration of the radioactivity, Bone (femur) [2]: 1.95 ± 0.128 μg equiv·g^−1 or mL | Concentration of the radioactivity, Bone marrow [2]: 9.66 ± 0.367 μg equiv·g^−1 or mL | Concentration of the radioactivity, Brain [2]: 1.18 ± 0.030 μg equiv·g^−1 or mL | Concentration of the radioactivity, Eyes [2]: 0.346 ± 0.029 μg equiv·g^−1 or mL | Concentration of the radioactivity, Fat [2]: 0.861 ± 0.096 μg equiv·g^−1 or mL | Concentration of the radioactivity, Harderian glands [2]: 1.15 ± 0.357 μg equiv·g^−1 or mL | Concentration of the radioactivity, Heart [2]: 6.33 ± 0.512 μg equiv·g^−1 or mL | Concentration of the radioactivity, Intestine [2]: 1.47 ± 0.158 μg equiv·g^−1 or mL | Concentration of the radioactivity, Kidneys [2]: 11.2 ± 1.48 μg equiv·g^−1 or mL | Concentration of the radioactivity, Liver [2]: 7.03 ± 0.613 μg equiv·g^−1 or mL | Concentration of the radioactivity, Lungs [2]: 8.46 ± 0.824 μg equiv·g^−1 or mL | Concentration of the radioactivity, Pancreas [2]: 2.56 ± 0.036 μg equiv·g^−1 or mL | Concentration of the radioactivity, Pituitary [2]: 13.2 ± 1.08 μg equiv·g^−1 or mL | Concentration of the radioactivity, Plasma [2]: 131 ± 3.86 μg equiv·g^−1 or mL | Concentration of the radioactivity, Skeletal muscle [2]: 0.569 ± 0.100 μg equiv·g^−1 or mL | Concentration of the radioactivity, Skin [2]: 0.376 ± 0.103 μg equiv·g^−1 or mL | Concentration of the radioactivity, Spinal cord [2]: 0.909 ± 0.289 μg equiv·g^−1 or mL | Concentration of the radioactivity, Spleen [2]: 4.62 ± 0.185 μg equiv·g^−1 or mL | Concentration of the radioactivity, Stomach [2]: 1.32 ± 0.257 μg equiv·g^−1 or mL | Concentration of the radioactivity, Submandibular lymph nodes [2]: 2.57 ± 0.038 μg equiv·g^−1 or mL | Concentration of the radioactivity, Testes [2]: 1.14 ± 0.083 μg equiv·g^−1 or mL | Concentration of the radioactivity, Thymus [2]: 0.669 ± 0.115 μg equiv·g^−1 or mL | Concentration of the radioactivity, Thyroid gland [2]: 8.25 ± 1.42 μg equiv·g^−1 or mL | Concentration of the radioactivity, Urinary bladder [2]: 2.40 ± 1.32 μg equiv·g^−1 or mL | Concentration of the radioactivity, Adrenals [3]: 7.83 ± 1.38 μg equiv·g^−1 or mL | Concentration of the radioactivity, Blood [3]: 60.9 ± 4.36 μg equiv·g^−1 or mL | Concentration of the radioactivity, Bone (femur) [3]: 1.53 ± 0.555 μg equiv·g^−1 or mL | Concentration of the radioactivity, Bone marrow [3]: 8.66 ± 2.79 μg equiv·g^−1 or mL | Concentration of the radioactivity, Brain [3]: 0.939 ± 0.015 μg equiv·g^−1 or mL | Concentration of the radioactivity, Eyes [3]: 0.779 ± 0.168 μg equiv·g^−1 or mL | Concentration of the radioactivity, Fat [3]: 0.923 ± 0.308 μg equiv·g^−1 or mL | Concentration of the radioactivity, Harderian glands [3]: 1.91 ± 0.183 μg equiv·g^−1 or mL | Concentration of the radioactivity, Heart [3]: 7.71 ± 1.29 μg equiv·g^−1 or mL | Concentration of the radioactivity, Intestine [3]: 3.07 ± 0.233 μg equiv·g^−1 or mL | Concentration of the radioactivity, Kidneys [3]: 10.6 ± 1.16 μg equiv·g^−1 or mL | Concentration of the radioactivity, Liver [3]: 7.51 ± 0.438 μg equiv·g^−1 or mL | Concentration of the radioactivity, Lungs [3]: 8.37 ± 1.27 μg equiv·g^−1 or mL | Concentration of the radioactivity, Pancreas [3]: 3.83 ± 0.582 μg equiv·g^−1 or mL | Concentration of the radioactivity, Pituitary [3]: 13.9 ± 2.71 μg equiv·g^−1 or mL | Concentration of the radioactivity, Plasma [3]: 99.6 ± 2.94 μg equiv·g^−1 or mL | Concentration of the radioactivity, Skeletal muscle [3]: 0.447 ± 0.037 μg equiv·g^−1 or mL | Concentration of the radioactivity, Skin [3]: 1.41 ± 0.175 μg equiv·g^−1 or mL | Concentration of the radioactivity, Spinal cord [3]: 0.662 ± 0.070 μg equiv·g^−1 or mL | Concentration of the radioactivity, Spleen [3]: 5.51 ± 0.776 μg equiv·g^−1 or mL | Concentration of the radioactivity, Stomach [3]: 2.69 ± 0.013 μg equiv·g^−1 or mL | Concentration of the radioactivity, Submandibular lymph nodes [3]: 4.25 ± 0.140 μg equiv·g^−1 or mL | Concentration of the radioactivity, Testes [3]: 4.01 ± 0.254 μg equiv·g^−1 or mL | Concentration of the radioactivity, Thymus [3]: 1.02 ± 0.040 μg equiv·g^−1 or mL | Concentration of the radioactivity, Thyroid gland [3]: 10.1 ± 1.79 μg equiv·g^−1 or mL | Concentration of the radioactivity, Urinary bladder [3]: 3.53 ± 0.234 μg equiv·g^−1 or mL | Concentration of the radioactivity, Adrenals [4]: 10.0 ± 1.15 μg equiv·g^−1 or mL | Concentration of the radioactivity, Blood [4]: 39.7 ± 2.51 μg equiv·g^−1 or mL | Concentration of the radioactivity, Bone (femur) [4]: 1.16 ± 0.177 μg equiv·g^−1 or mL | Concentration of the radioactivity, Bone marrow [4]: 8.50 ± 1.23 μg equiv·g^−1 or mL | Concentration of the radioactivity, Brain [4]: 0.646 ± 0.050 μg equiv·g^−1 or mL | Concentration of the radioactivity, Eyes [4]: 0.806 ± 0.063 μg equiv·g^−1 or mL | Concentration of the radioactivity, Fat [4]: 1.65 ± 0.392 μg equiv·g^−1 or mL | Concentration of the radioactivity, Harderian glands [4]: 2.55 ± 0.105 μg equiv·g^−1 or mL | Concentration of the radioactivity, Heart [4]: 6.28 ± 0.256 μg equiv·g^−1 or mL | Concentration of the radioactivity, Intestine [4]: 3.10 ± 0.144 μg equiv·g^−1 or mL | Concentration of the radioactivity, Kidneys [4]: 8.75 ± 1.47 μg equiv·g^−1 or mL | Concentration of the radioactivity, Liver [4]: 9.26 ± 0.516 μg equiv·g^−1 or mL | Concentration of the radioactivity, Lungs [4]: 7.22 ± 0.464 μg equiv·g^−1 or mL | Concentration of the radioactivity, Pancreas [4]: 5.14 ± 0.582 μg equiv·g^−1 or mL | Concentration of the radioactivity, Pituitary [4]: 13.7 ± 2.02 μg equiv·g^−1 or mL | Concentration of the radioactivity, Plasma [4]: 64.1 ± 5.12 μg equiv·g^−1 or mL | Concentration of the radioactivity, Skeletal muscle [4]: 0.584 ± 0.044 μg equiv·g^−1 or mL | Concentration of the radioactivity, Skin [4]: 3.29 ± 0.308 μg equiv·g^−1 or mL | Concentration of the radioactivity, Spinal cord [4]: 0.442 ± 0.090 μg equiv·g^−1 or mL | Concentration of the radioactivity, Spleen [4]: 10.2 ± 1.04 μg equiv·g^−1 or mL | Concentration of the radioactivity, Stomach [4]: 3.01 ± 0.168 μg equiv·g^−1 or mL | Concentration of the radioactivity, Submandibular lymph nodes [4]: 5.72 ± 0.303 μg equiv·g^−1 or mL | Concentration of the radioactivity, Testes [4]: 4.15 ± 0.605 μg equiv·g^−1 or mL | Concentration of the radioactivity, Thymus [4]: 1.90 ± 0.201 μg equiv·g^−1 or mL | Concentration of the radioactivity, Thyroid gland [4]: 10.2 ± 1.10 μg equiv·g^−1 or mL | Concentration of the radioactivity, Urinary bladder [4]: 6.18 ± 0.260 μg equiv·g^−1 or mL | tissue to plasma ratios (after 24 h, in most tissues): > 1 | tissue to plasma ratios (through at least 24 h after dosing): < 1
